± gives the standard deviation.
Experiment: collision cross section of modified peptide (TIMS, N2, iRT-aligned); higher = larger / more extended gas-phase ion
Method in brief: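 Values are averages of 1–3 technical replicates of the most abundant feature for each charge state. Collision cross section was obtained from the Mason-Schamp equation after 1/K0 calibration with three reference ions and run-wise alignment to the median iRT peptide deviation. Synthetic peptide pools (iRT standard spiked 1:40) were separated on a 120-min nanoflow C18 gradient at 60 °C, analysed on a timsTOF Pro/HT (dda-PASEF, nitrogen, ~2.4 mbar) and identified with MaxQuant.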

[1] = charge state: 2, modification: Crotonyl
[2] = charge state: 3, modification: Crotonyl
[3] = charge state: 3, modification: Malonyl
[4] = charge state: 3, modification: Citrullination (R)
[5] = charge state: 2, modification: Glutarylation
[6] = charge state: 3, modification: Glutarylation
[7] = charge state: 2, modification: Methyl (K)
[8] = charge state: 3, modification: Methyl (K)
[9] = charge state: 2, modification: Formyl
[10] = charge state: 3, modification: Formyl
[11] = charge state: 2, modification: Acetyl (K)
[12] = charge state: 3, modification: Acetyl (K)
[13] = charge state: 2, modification: Malonyl
[14] = charge state: 2, modification: Propionyl
[15] = charge state: 2, modification: Butyryl
[16] = charge state: 3, modification: Butyryl

Sequence: SSGPGGQNVNKVNSK [_SSGPGGQNVNK(Crotonyl)VNSK_]
- collision cross section [1]: 407.39 ± 1.4 Å²

Sequence: AGQKLIDVNHYAK [_AGQK(Dimethyl (K))LIDVNHYAK_]
- collision cross section (charge state: 3, modification: Dimethyl (K)): 472.93 ± 1.2 Å²

Sequence: VTLEVGKVIQQGR [_VTLEVGK(Crotonyl)VIQQGR_]
- collision cross section [1]: 412.55 ± 0.81 Å²
- collision cross section [2]: 473.48 ± 1.6 Å²

Sequence: DLTTAGAVTQCYR [_DLTTAGAVTQCY(Nitro (Y))R_]
- collision cross section (charge state: 2, modification: Nitro (Y)): 399.32 ± 0.8 Å²
- collision cross section (charge state: 3, modification: Nitro (Y)): 462.24 Å²

Sequence: PANEKATDDYHYEK [_PANEK(Biotin)ATDDYHYEK_]
- collision cross section (charge state: 3, modification: Biotin): 529.25 ± 3.6 Å²

Sequence: PANEKATDDYHYEK [_PANEK(Malonyl)ATDDYHYEK_]
- collision cross section [3]: 498.89 ± 1.6 Å²

Sequence: DNNNSNNRGSYNR [_DNNNSNNR(Citrullination (R))GSYNR_]
- collision cross section [4]: 460.73 ± 2.9 Å²

Sequence: SSFAYKDQNENR [_SSFAYK(Gluratylation)DQNENR_]
- collision cross section [5]: 404.81 ± 0.5 Å²
- collision cross section [6]: 472.81 ± 1.2 Å²

Sequence: GFCFITYTDEEPVKK [_GFCFITYTDEEPVK(Methyl (K))K_]
- collision cross section [7]: 460.43 ± 0.33 Å²
- collision cross section [8]: 513.09 ± 2.7 Å²

Sequence: IVFSGNLFQHQEDSKK [_IVFSGNLFQHQEDSK(Methyl (K))K_]
- collision cross section [7]: 490.37 Å²
- collision cross section [8]: 529.21 ± 1.6 Å²

Sequence: DAIHFYNKSLAEHR [_DAIHFYNK(Crotonyl)SLAEHR_]
- collision cross section [2]: 509.89 ± 2 Å²

Sequence: AAQASDLEKIHLDEK [_AAQASDLEK(Formyl)IHLDEK_]
- collision cross section [9]: 452.43 ± 0.71 Å²
- collision cross section [10]: 490.12 ± 2.1 Å²

Sequence: VGIDTPDIDIHGPEGKLK [_VGIDTPDIDIHGPEGK(Gluratylation)LK_]
- collision cross section [5]: 497.76 ± 0.79 Å²
- collision cross section [6]: 542.69 ± 1.1 Å²

Sequence: IPQEKCILQTDVK [_IPQEK(Acetyl (K))CILQTDVK_]
- collision cross section [11]: 431.12 ± 1.2 Å²

Sequence: LQAAYAGDKADDIQK [_LQAAYAGDK(Acetyl (K))ADDIQK_]
- collision cross section [11]: 429.91 ± 2.1 Å²
- collision cross section [12]: 488.96 ± 0.48 Å²

Sequence: GEVGAGAGPGAQAGPSAKR [_GEVGAGAGPGAQAGPSAK(Acetyl (K))R_]
- collision cross section [11]: 420.33 ± 2.6 Å²
- collision cross section [12]: 478.86 ± 2.4 Å²

Sequence: DVNAAIAAIKTK [_DVNAAIAAIK(Malonyl)TK_]
- collision cross section [13]: 406.2 ± 0.59 Å²

Sequence: LQEKVESAQSEQK [_LQEK(Malonyl)VESAQSEQK_]
- collision cross section [13]: 413.7 ± 1.6 Å²
- collision cross section [3]: 504.23 ± 2.2 Å²

Sequence: AGRGFSLEELR [_AGR(Methyl (R))GFSLEELR_]
- collision cross section (charge state: 2, modification: Methyl (R)): 379.24 Å²
- collision cross section (charge state: 3, modification: Methyl (R)): 460.11 ± 2.4 Å²

Sequence: FDDTNPEKEEAK [_FDDTNPEK(Propionyl)EEAK_]
- collision cross section [14]: 396.96 ± 0.65 Å²

Sequence: TPNLYIYSKK [_TPNLYIYSK(hydroxyisobutyryl)K_]
- collision cross section (charge state: 2, modification: hydroxyisobutyryl): 388.68 ± 3 Å²

Sequence: GSLGAQKLANTCFNEIEK [_GSLGAQK(GlyGly (K))LANTCFNEIEK_]
- collision cross section (charge state: 2, modification: GlyGly (K)): 500.39 ± 1.8 Å²
- collision cross section (charge state: 3, modification: GlyGly (K)): 528.63 ± 18 Å²

Sequence: DSSPTTNSKLSALQR [_DSSPTTNSK(Propionyl)LSALQR_]
- collision cross section [14]: 430.82 ± 2.1 Å²
- collision cross section (charge state: 3, modification: Propionyl): 498.95 Å²

Sequence: GSLEKGSPEDK [_GSLEK(Methyl (K))GSPEDK_]
- collision cross section [7]: 357.31 ± 0.34 Å²
- collision cross section [8]: 434.75 ± 5.3 Å²

Sequence: DYSSGFGGKYGVQADR [_DYSSGFGGK(Succinyl)YGVQADR_]
- collision cross section (charge state: 2, modification: Succinyl): 438.99 ± 0.83 Å²

Sequence: TQDQISNIKYHEEFEK [_TQDQISNIK(Malonyl)YHEEFEK_]
- collision cross section [3]: 548.96 ± 0.016 Å²

Sequence: ITESVAETAQTIKK [_ITESVAETAQTIK(Butyryl)K_]
- collision cross section [15]: 425.5 ± 0.24 Å²
- collision cross section [16]: 518.39 ± 2.7 Å²

Sequence: FDDTNPEKEEAK [_FDDTNPEK(Malonyl)EEAK_]
- collision cross section [13]: 398.04 ± 0.6 Å²

Sequence: GTITVSAQELKDNR [_GTITVSAQELK(Butyryl)DNR_]
- collision cross section [15]: 422.6 ± 0.77 Å²
- collision cross section [16]: 481.65 ± 2.9 Å²

Sequence: GVPRGVHLGSQGLQR [_GVPR(Citrullination (R))GVHLGSQGLQR_]
- collision cross section (charge state: 2, modification: Citrullination (R)): 439.96 Å²
- collision cross section [4]: 482.18 ± 0.41 Å²

Sequence: PASGAGAGAGAGKR [_PASGAGAGAGAGK(Formyl)R_]
- collision cross section [9]: 349.96 ± 1.4 Å²
- collision cross section [10]: 453.33 ± 1.2 Å²

Sequence: DSSPTTNSKLSALQR [_DSSPTTNSK(Acetyl (K))LSALQR_]
- collision cross section [11]: 430.6 ± 0.81 Å²
- collision cross section [12]: 495.74 ± 2.2 Å²

Sequence: SPDEAYAIAKK [_SPDEAYAIAK(Biotin)K_]
- collision cross section (charge state: 2, modification: Biotin): 394.29 ± 1.1 Å²

From the supplement of paper PMC10598134
